In this experiment the target is MERS-CoV RBD Twin-Strep His (wild type, G372-L588) (MERS-CoV). The experiment is described as follows: serum pull-down with RBD-TwinStrep on streptavidin magnetic beads.

B1: circulating mouse DPP4 (from serum) (receptor)
chain: SRRTYSLADYLKSTFRVKSYSLWWVSDFEYLYKQENNILLLNAEHGNSSIFLENSTFESFGYHSVSPDRLFVLLEYNYVKQWRHSYTASYNIYDVNKRQLITEEKIPNNTQWITWSPEGHKLAYVWKNDIYVKVEPHLPSHRITSTGEENVIYNGITDWVYEEEVFGAYSALWWSPNNTFLAYAQFNDTGVPLIEYSFYSDESLQYPKTVWIPYPKAGAVNPTVKFFIVNIDSLSSSSSAAPIQIPAPASVARGDHYLCDVVWATEERISLQWLRRIQNYSVMAICDYDKINLTWNCPSEQQHVEMSTTGWVGRFRPAEPHFTSDGSSFYKIISDKDGYKHICHFPKDKKDCTFITKGAWEVISIEALTSDYLYYISNQYKEMPGGRNLYKIQLTDHTNVKCLSCDLNPERCQYYAVSFSKEAKYYQLGCWGPGLPLYTLHRSTDHKELRVLEDNSALDRMLQDVQMPSKKLDFIVLNETRFWYQMILPPHFDKSKKYPLLLDVYAGPCSQKADASFRLNWATYLASTENIIVASFDGRGSGYQGDKIMHAINRRLGTLEVEDQIEAARQFVKMGFVDSKRVAIWGWSYGGYVTSMVLGSGSGVFKCGIAVAPVSRWEYYDSVYTERYMGLPIPEDNLDHYRNSTVMSRAEHFKQVEYLLIHGTADDNVHFQQSAQISKALVDAGVDFQAMWYTDEDHGIASSTAHQHIYSHMSHFLQQCFSLH
For B1, the binding result is reported as “no binding”.

For the origin of these results see patent publication EP4248993A1 (Charité - Universitätsmedizin Berlin, dated 2023).
